Tested on: MS2 coat protein
Assay: apparent KD of MS2 coat protein; designed switch direction (-1 OFF switch, 1 ON switch): 1; higher = weaker reporter binding
How it was run: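 Designed RNA switches with common flanks were made on Illumina chips by stalled E. coli RNA polymerase. Titration with SNAP-549-labelled MS2 coat protein doubled from 0.7 or 1.5 nM up to 3 µM. Apparent KD is each design's median over clusters after curve-fitting normalised fluorescence.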

[1] = input ligand: microRNA oligo, concentration not stated
[2] = Eterna round: R95, input ligand: FMN 200 uM
[3] = Eterna round: R95, input ligand: microRNA oligo, concentration not stated
[4] = Eterna round: R95, input ligand: none

| Sequence | apparent KD of MS2 coat protein (input ligand: FMN 200 uM) | apparent KD of MS2 coat protein [1] | apparent KD of MS2 coat protein (input ligand: none) | apparent KD of MS2 coat protein [2] | apparent KD of MS2 coat protein [3] | apparent KD of MS2 coat protein [4] |
| --- | --- | --- | --- | --- | --- | --- |
| GAGAGAGGGUGAGGAUAUUGAGUAAUAAUGAUACAAGAAGGCACAGACAUGAGGAUCACCCAUGUGGGAAUAAUCCAGAGAGAG [Parity 6 - Jieux - Same State NG 1] (Eterna round: R96, puzzle: Same State NG 1) | 262 nM | 153 nM | 289 nM |  |  |  |
| AUGAAGAAUUAAGGAUAUUGAUUACAUAUGUUUAACAUGAGGAUCACCCAUGUGGGUUGCGGUAUCGAGAAGGUAAAUUACAAG [Mat - same State NG 2 - JL mod - D87] (Eterna round: R96, puzzle: Same State NG 2) | 177 nM | 132 nM | 187 nM |  |  |  |
| GGCGUAUAAACAUGAGGAUCACCCAUGUUGCGGAGACGCAAUGAGGAUAUCGAUGGGUUUCCCGUCGAGAAGGCGUGGGUCGCC [JL SSNG3 3.95] (Eterna round: R96, puzzle: Same State NG 3) | 22.3 nM | 24.6 nM | 40.2 nM |  |  |  |
| AUGUGUUUGCGAGGAUAUCGUUUGUUGAAGUUACGAGAAGGCGCUCACUUUACAUGAGGAUCACCCAUGUCUUUGAUGCAUGAU [JR_SSNG1_Sub073] (Eterna round: R96, puzzle: Same State NG 1) | 46.6 nM | 40.2 nM | 44.1 nM |  |  |  |
| CGGAAACGAUGAGGAUAUGCAGAGGAUCACCCUGUAGAAGGCAAGAGAUGAGGAUAUGCAGAGGAUCACCCUGUAGAAGGCAAC [pwkr ssNG DX.4] (Eterna round: R96, puzzle: Same State NG 1) | 146 nM | 56.5 nM | 84.9 nM |  |  |  |
| GGUAGGUUACUACCAACACAUGAGGAUCACCCAUGUUUUGGGAAGGAUAUGGUACCUAUUUGGUACCAGAAGGUCCAGUUAAUU [Fiskers NG3ss - 17] (Eterna round: R96, puzzle: Same State NG 3) | 47.4 nM | 66.6 nM | 69.5 nM |  |  |  |
| AGUCCAGCCUGAGCUGGACAAAAGCAUGUACAUGAGGAUCACCCAUGUUCAUGUACAGGCUUUUUGCUCGUCUUAAA [Zipper 52 - 7] (puzzle: Sensor for hsa-mir-208a) |  |  |  | 331 nM | 17.8 nM | 488 nM |
| GUGGUCAGACAUGAGGAUCACCCAUGUGGAAUAAAUAACGGACAGGAUAUUGAAUAUAGGAUAUACAAGAAGGGUUGAUUGGUG (Eterna round: R96, puzzle: Same State NG 3) | 83.6 nM | 47.7 nM | 73.9 nM |  |  |  |
| GGUAUCGGCACAGGAUAUGCUAUCCUUUGGGUAGCAGAAGGGUGGACAUGAGGAUCACCCAUGUAGGUGCCAGGGCGUGAGCCC [JL SSNG1 1.87] (Eterna round: R96, puzzle: Same State NG 1) | 2490 nM | 26.3 nM | 3550 nM |  |  |  |
| GCGGAGAGGUAAGGAUAUCCAUGGAAGACACAUGAGGAUCACCCAUGUGGGAGGGAAACCAGGAGGGAGAAGGUACCGGGACGC [AK SSNG2-V2-21] (Eterna round: R96, puzzle: Same State NG 2) | 11.5 nM | 10.4 nM | 13.2 nM |  |  |  |
| GUGGUCAGACAUGAGGAUCACCCAUGUGGAAUAAAUAAGGAAGAGGAUAUCGAAUAUAGGAUAUACGAGAAGGUUUGGUUGGUG (Eterna round: R96, puzzle: Same State NG 3) | 117 nM | 77.5 nM | 94.6 nM |  |  |  |
| GUUCCAAGGUGAGGAUAUGCAGAGGAUCACCCUGUAGAAGGCAUCAGGUGAGGAUAUGCAGAGGAUCACCCUGUAGAAGGCAUC [pwkr ssNG DX.10] (Eterna round: R96, puzzle: Same State NG 1) | 105 nM | 180 nM | 295 nM |  |  |  |
| AGUCCAGCGAAAGCUGGACAAAAGCAUGUACAUGAGGAUCACCCAUGUUCAUGUGCAAGCUUUUUGCUCGUCUUAAA [JL mod - D95 - 4] (puzzle: Sensor for hsa-mir-208a) |  |  |  | 49.2 nM | 9.36 nM | 58.9 nM |
| GGUCCAGCGAGAGCUGGACAAAAGCAUGUACAUGAGGAUCACCCAUGUCAUGUACAAGCUUUUUGCUCGUCUUAAAA [Mat - Sensor - JL mod - D88] (Eterna round: R96, puzzle: Sensor for hsa-mir-208a) | 556 nM | 12.9 nM | 486 nM |  |  |  |
| GUUGAGAAAUAAGGAUAUGCAUGGAAGACACAUGAGGAUCACCCAUGUGGGAGGGAAACCAGGAGGUAGAAGGUAUUGGGAAAC [AK SSNG2-V2-23.1] (Eterna round: R96, puzzle: Same State NG 2) | 43.8 nM | 28.7 nM | 49.1 nM |  |  |  |
| GAGUAGGACUUACAGGAUAUAUGGAGGUUGACAUGAGGAUCACCCAUGUCUGAGUUGAGAGGAGGAUAGAAGGGUAUGGGAGGCG [JR_SS2_Sub030] (puzzle: Same State 2) |  |  |  | 23.4 nM | 16.5 nM | 22.4 nM |

| Sequence | apparent KD of MS2 coat protein (input ligand: FMN 200 uM) | apparent KD of MS2 coat protein [1] | apparent KD of MS2 coat protein (input ligand: none) | apparent KD of MS2 coat protein [2] | apparent KD of MS2 coat protein [3] | apparent KD of MS2 coat protein [4] |
| --- | --- | --- | --- | --- | --- | --- |
| UAUUUAAUCAUAGGAUAUAGUGUGUAAUUUGGACUAGAAGGAUGUAACAUGAGGAUCACCCAUGUGGUAAAUGGGAUACAUUCC [JR_SSNG1_Sub099] (Eterna round: R96, puzzle: Same State NG 1) |  | 91.9 nM |  |  |  |  |
| GCUAGAAAUAAAGCCAACAUGAGGAUCACCCAUGUAUGUUGGUAGGAUAUCGUAUGCAAAGCAUACGAGAAGGGCUAAACUAGC [Mat - Same State NG 3 - JL Mod - D18] (Eterna round: R96, puzzle: Same State NG 3) | 91.6 nM | 77.5 nM | 93.7 nM |  |  |  |
| AGCUAUCGCGUACGAUAGCUGAAGCAUGUACAUGAGGAUCACCCAUGUCAUGUACAAGCUUUUUGCUCGUCUUAUUG [JL-shm-2.26 JL mod] (puzzle: Sensor for hsa-mir-208a) |  |  |  | 341 nM | 14.2 nM | 347 nM |
| GUUACAUGAGGAUCACCCAUGUAUGUGUGGGAGUAAGUGUCUUAGGAUAUCUAUCAUUUGAUUUAAGAGAAGGAAGAUUGUUGU [JMF's solution 94] (Eterna round: R96, puzzle: Same State NG 3) | 116 nM | 96.1 nM | 115 nM |  |  |  |
| UGUUGUAUUACAGGAUAUCUAGUAUUUAUAUUUAGAGAAGGGUAUUCACAUGAGGAUCACCCAUGUAUAUACGAGGAAGUUGUG [JMF's solution 41] (Eterna round: R96, puzzle: Same State NG 1) |  | 36.9 nM |  |  |  |  |
| UUAAGCCACGGGCAGGAUAUGUGUUAAAAUACAUGAGGAUCACCCAUGUGCAGGUGUAACACCUGACAGAAGGGCCAAUCGCGGC [Soondi - 2] (puzzle: Same State 2) |  |  |  | 23.7 nM | 43 nM | 56.4 nM |
| GCGAUAUGAUGUUACAUGAGGAUCACCCAUGUAGCGAUAGCUAAGGAUAUUUGAAAGGGAGGAGAAGAGAAGGUAGGAUCACGC [AK SSNG3-V2-22.2] (Eterna round: R96, puzzle: Same State NG 3) | 24.6 nM | 18.6 nM | 20.3 nM |  |  |  |
| AAAGUACAUGAGGAUCACCCAUGUCCAAAGAAGUAAGGAUAUACGGAAAGAAAAGAAAAUGUAGAAGGUACAAGAA [Same State 1 #3] (puzzle: Same State 1) |  |  |  | 33 nM | 65.8 nM | 57.6 nM |
| CGCGGUAAGGAAGGAUAUGGGACGAAAACGUACCUAGAAGGUCCACAUGAGGAUCACCCAUGUACCAAGAAAGCCGCUCAAUUA [Uszabeon] (Eterna round: R96, puzzle: Same State NG 1) | 89.8 nM | 260 nM | 334 nM |  |  |  |
| AGUCCAGCCUGAGCUGGACAAAAGCAUGUACAUGAGGAUCACCCAUGUCAUGUACAAGUUUUUUGCUCGUCUUAAAA [Zipper 46 - 11] (puzzle: Sensor for hsa-mir-208a) |  |  |  | 37.7 nM | 13 nM | 40.6 nM |
| GCCGACUAAUGAGGAUAUGGCACCUUAUUGGUGCCAGAAGGCAUGUCAAUUGACAUGAGGAUCACCCAUGUAUUAUAGUUGGCG [salish99_SSNG1_r04_602] (Eterna round: R96, puzzle: Same State NG 1) | 96.5 nM | 177 nM | 449 nM |  |  |  |
| GUGGUCAGACAUGAGGAUCACCCAUGUGGAAUAAAUAACGACUAGGAUAUAUAAUAUAGGAUAUAAUAGAAGGAGUGAUUGGUG (Eterna round: R96, puzzle: Same State NG 3) | 72.3 nM | 49.5 nM | 58.8 nM |  |  |  |
| GUUAUACAUGAGGAUCACCCAUGUCAAUGUAGUCGAGGAUAUGGGUAGCUAUGAGGCGUACUAGAAGGCGAGGAGU [JL-ss1-3.16 ViennaUCT mod] (Eterna round: R96, puzzle: Same State 1) | 503 nM | 246 nM | 477 nM |  |  |  |
| AUUACUAACAUAGGAUAUCAUGCGAAAAUUGCGUGAGAAGGGUGGACGCUGUCAUUCACGGAGGACAUGAGGAUCACCCAUGUC [SameState NG1 #72] (Eterna round: R96, puzzle: Same State NG 1) | 264 nM | 103 nM | 143 nM |  |  |  |
| CUGAGCGAUCUAGGAUAUCACGUCGAAUAGACGUGAGAAGGAGAUCAUAACAUGAGGAUCACCCAUGUAUUACAUGAAGCUCAG [SSNG1/6-A1] (Eterna round: R96, puzzle: Same State NG 1) | 13.2 nM | 10.4 nM | 25.4 nM |  |  |  |

Source: the supplement of paper PMC9170038
